Target: His-importin 7 (Xenopus laevis) (Xenopus laevis)
Assay: differential scanning fluorimetry; His-tagged NTR at 0.5 μM in TPB with 2 mM DTT, His-NOSIP or Ubc9 titrated in 18 steps from 0.05 to 5 μM, 5x SYPRO Orange, 25 to 90 °C; Tm plotted against concentration, exponential fit

Kd: 447 nM
B1: His-NOSIP (natural protein)
chain: MTRHGKNCTAGAVYTYHEKKKDTAASGYGTQNIRLSRDAVKDFDCCCLSLQPCHDPVVTPDGYLYEREAILEYILHQKKEIARQMKAYEKQRGTRREEQKELQRAASQDHVRGFLEKESAIVSRPLNPFTAKALSGTSPDDVQPGPSVGPPSKDKDKVLPSFWIPSLTPEAKATKLEKPSRTVTCPMSGKPLRMSDLTPVHFTPLDSSVDRVGLITRSERYVCAVTRDSLSNATPCAVLRPSGAVVTLECVEKLIRKDMVDPVTGDKLTDRDIIVLQRGGTGFAGSGVKLQAEKSRPVMQA
